First the molecules themselves.
B1: C27-24-56 (antibody, human IgG4, V domains shown)
VH: EVQLLESGGGLVQPGGSLRLSCAASGFTLSSYAMHWVRQAPGKGLEYVSGISPTSGSTYYANSVKGRFTISRDNPKNTLFLQMSSLRAEDTAVYYCVRVKVRYRGGMDVWGQGTTVTVSS
VL: EIVLTQSPGTLSLSPGERATLSCRASQSVSSAYLAWYQQKPGQAPRLLIYGTSRRATGIPDRFSGSGSGTDFTLTISRLEPEDFAVYYCQLYGASSVTFGQGTKLEIK
B2: C27-6-33 (antibody, human IgG4, V domains shown)
VH: B1 VH with T54S, S55G, G56S, V99S
VL: B1 VL with S28G, V29I, S95T
B3: Dupilumab (antibody, V domains shown)
VH: EVQLVESGGGLEQPGGSLRLSCAGSGFTFRDYAMTWVRQAPGKGLEWVSSISGSGGNTYYADSVKGRFTISRDNSKNTLYLQMNSLRAEDTAVYYCAKDRLSITIRPRYYGLDVWGQGTTVTVSS
VL: DIVMTQSPLSLPVTPGEPASISCRSSQSLLYSIGYNYLDWYLQKSGQSPQLLIYLGSNRASGVPDRFSGSGSGTDFTLKISRVEAEDVGFYYCMQALQTPYTFGQGTKLEIKR
B4: C27 (antibody, human IgG4, V domains shown)
VH: B1 VH with P53S, T54N, S55G, R102G
VL: B1 VL with I2T, V3T, G9D, S12P, E17D, T20S, I59V, D61G, A94S
notes: also called parent antibody C27; lead parent antibody
B5: C27-67-67 (antibody, human IgG4, V domains shown)
VH: B1 VH with G56A, V101G
VL: B1 VL with S28G, A94R
B6: C27-53-53 (antibody, human IgG4, V domains shown)
VH: B1 VH with P53S, T54N, S55G, K100F
VL: B1 VL with S28D, V29A, S31N, A94S
B7: C27-58-58 (antibody, human IgG4, V domains shown)
VH: B1 VH with T54S, G56N
VL: B1 VL with S28D, V29I, S95T
B8: C27-54-54 (antibody, human IgG4, V domains shown)
VH: B1 VH with P53H, T54S, S55G, G56T, K100R, R102L
VL: B1 VL with S28D, S95T
B9: C27-52-52 (antibody, human IgG4, V domains shown)
VH: B1 VH with P53S, T54S, S55G, G56S, V101P, R102A
VL: B1 VL with S28G, S31T, S95T
B10: C27-78-78 (antibody, human IgG4, V domains shown)
VH: B1 VH with T54S, G56A, V101S, R102K
VL: B1 VL with V29I, S31T
B11: C27-Y2-Y2 (antibody, human IgG4, V domains shown)
VH: B1 VH with P53Y, T54S, G56A
VL: B1 VL with T5P, S28G, A94S, S95T
B12: C27-55-55 (antibody, human IgG4, V domains shown)
VH: B1 VH with S55G, V101G
VL: B1 VL with S28N, V29I, S31T, A94T
B13: C27-56-56 (antibody, human IgG4, V domains shown)
VH: B1 VH with T54S, G56T, R102L
VL: B1 VL
B14: C27-36-36 (antibody, human IgG4, V domains shown)
VH: B1 VH with T54S, S55G, G56V, R102K
VL: B1 VL with S28N, V29I, S31T, S95T
B15: C27-82-58 (antibody, human IgG4, V domains shown)
VH: B1 VH with P53G, T54N, G56A, V101L, R102K
VL: B1 VL with S28D, V29I, S95T
B16: C27-33-33 (antibody, human IgG4, V domains shown)
VH: B1 VH with P53S, T54S, S55G, G56S, R102A
VL: B1 VL with S28G, V29I, S95T

Positions count from the first letter of the chain named.

For one test, the target named is T1, IL-4R with mouse Fc-tag (human, UniProt P24394 26-232).
T1 construct: not shown: mouse Fc-tag
The test can be described thus: competitive ELISA: antibody dilutions with 0.5 µg/mL IL-4R-mouse Fc on plate-captured biotinylated IL-4, anti-mouse-Fc-HRP. The protocol:
Competitive ELISA: The second assay was designed to identify the anti-IL-4Rα antibodies that were capable of inhibiting the binding of hIL-4 to hIL-4Rα, as measured by competitive ELISA. Briefly, a 96-well plate was coated with 100 μL, 2.5 μg/mL SA (Streptavidin) solution, and incubated overnight at 4° C., followed by washed with TBST. Biotinylated IL-4 with the final concentration of 2 μg/mL was added into the plate and incubated at 37° C. for 1 hour. Then the plate was washed with TBST. The anti-IL-4Rα antibody samples were first diluted to 10 μg/mL, and 1004, of the sample was added to the first row of wells. 10 μg/mL anti-IL-4Rα antibody samples were then serially diluted at a 1:2 ratio and added to each of the remaining rows of wells. 504 of 0.5 μg/mL IL-4R with mouse Fc-tag was added to each well. After incubating for 1 hour at 37° C., the wells were washed with TBST 6 times. 100 µL of anti-mouse-Fc-HRP (1:10,000) was then added to each well and incubated for 1 hour at 37° C. The wells were washed with TBST 6 times before adding 1004/well of TMB, and incubated for 5-10 minutes at 37° C. 2M H₂SO₄ was used to stop the reaction. The ELISA results (OD450) were read, and the binding curves were generated by GraphPad Prism 5 software (GraphPad Software). Reference antibody Dupilumab (Regeneron, anti-IL-4Rα antibody) and AMG317 (Amgen, anti-IL-4Rα antibody) were used as positive controls, Human IgG4, kappa Isotype Control (Cat #HG4K, Sino Biological Inc.) was used as negative control, abbreviated as Human IgG4 in FIG. 1.
A general note: In an ELISA, binding on a coated surface is turned into a signal by an enzyme label.
In general, IC50 refers to the concentration that gives 50% inhibition. Low values mean greater potency in that assay, high ones weaker potency in that assay. Take B1: the IC50 is 0.0632 µg/mL.

With B2, the IC50 amounted to 0.0781 µg/mL.

Molecule B3 returned an IC50 of 0.0838 µg/mL.

The target of the next test is T2, human IL-4Rα on cells (human, UniProt P24394 26-825). The test is described as follows: cell-based or functional assay.
Take B4: the “IC50(nM), neutralization of hIL-4 (1.2 ng/ml), HEK-Blue IL-4/IL-13 STAT6-SEAP reporter cells” value worked out at 17.9 nM.

As to B5, the “IC50(nM), neutralization of hIL-4 (1.2 ng/ml), HEK-Blue IL-4/IL-13 STAT6-SEAP reporter cells” value came out at 0.076 nM.

On to B6, for which the “IC50(nM), neutralization of hIL-4 (1.2 ng/ml), HEK-Blue IL-4/IL-13 STAT6-SEAP reporter cells” value was 0.293 nM.

Regarding B7, the “IC50(nM), neutralization of hIL-4 (1.2 ng/ml), HEK-Blue IL-4/IL-13 STAT6-SEAP reporter cells” value came out at 0.41 nM.

With B8, the “IC50(nM), neutralization of hIL-4 (1.2 ng/ml), HEK-Blue IL-4/IL-13 STAT6-SEAP reporter cells” value is 0.34 nM.

On to B9, for which the “IC50(nM), neutralization of hIL-4 (1.2 ng/ml), HEK-Blue IL-4/IL-13 STAT6-SEAP reporter cells” value was determined as 0.476 nM.

Consider B10, for which the “IC50(nM), neutralization of hIL-4 (1.2 ng/ml), HEK-Blue IL-4/IL-13 STAT6-SEAP reporter cells” value amounted to 0.103 nM.

Turning to B11, the “IC50(nM), neutralization of hIL-4 (1.2 ng/ml), HEK-Blue IL-4/IL-13 STAT6-SEAP reporter cells” value was found to be 0.138 nM.

For B1, the “IC50(nM), neutralization of hIL-4 (1.2 ng/ml), HEK-Blue IL-4/IL-13 STAT6-SEAP reporter cells” value was 0.0632 nM.

For B12, the “IC50(nM), neutralization of hIL-4 (1.2 ng/ml), HEK-Blue IL-4/IL-13 STAT6-SEAP reporter cells” value is 0.0853 nM.

Take B13: the “IC50(nM), neutralization of hIL-4 (1.2 ng/ml), HEK-Blue IL-4/IL-13 STAT6-SEAP reporter cells” value is 0.15 nM.

For B14, the “IC50(nM), neutralization of hIL-4 (1.2 ng/ml), HEK-Blue IL-4/IL-13 STAT6-SEAP reporter cells” value is 0.125 nM.

For B15, the “IC50(nM), neutralization of hIL-4 (1.2 ng/ml), HEK-Blue IL-4/IL-13 STAT6-SEAP reporter cells” value turned out to be 0.283 nM.

For the molecule B16, the “IC50(nM), neutralization of hIL-4 (1.2 ng/ml), HEK-Blue IL-4/IL-13 STAT6-SEAP reporter cells” value stood at 0.195 nM.

Take B2: the “IC50(nM), neutralization of hIL-4 (1.2 ng/ml), HEK-Blue IL-4/IL-13 STAT6-SEAP reporter cells” value came out at 0.0537 nM.

Turning to B3, the “IC50(nM), neutralization of hIL-4 (1.2 ng/ml), HEK-Blue IL-4/IL-13 STAT6-SEAP reporter cells” value turned out to be 0.165 nM.

Another test concerns the target T2, human IL-4Rα on cells. The test is described as follows: cell-based or functional assay. The source holds these as a separate data set.
As to B3, the “IC50(nM), inhibition of TARC release in human PBMCs induced by hIL-13 (200 ng/mL)” value is 0.0323 nM.

A further test addresses T2, human IL-4Rα on cells. The test can be described thus: cell-based or functional assay. The source holds these as a separate data set.
As to B3, the “IC50(nM), inhibition of hIL-4 (1 ng/mL) dependent CD23 upregulation on B cells in human PBMCs” value worked out at 0.119 nM.

The next test addresses T2, human IL-4Rα on cells. The test can be described thus: cell-based or functional assay. This is another data set of the same source.
Regarding B3, the “IC50(nM), inhibition of hIL-13 (20 ng/mL) dependent CD23 upregulation on B cells in human PBMCs” value was found to be 2.8 nM.

In a further test the target is T2, human IL-4Rα on cells. The test is described as follows: cell-based or functional assay. The source holds these as a separate data set.
With B1, the “IC50(nM), neutralization of hIL-13 (4 ng/ml), HEK-Blue IL-4/IL-13 STAT6-SEAP reporter cells” value stood at 0.0482 nM.

With B2, the “IC50(nM), neutralization of hIL-13 (4 ng/ml), HEK-Blue IL-4/IL-13 STAT6-SEAP reporter cells” value is 0.0446 nM.

On to B3, for which the “IC50(nM), neutralization of hIL-13 (4 ng/ml), HEK-Blue IL-4/IL-13 STAT6-SEAP reporter cells” value came out at 0.136 nM.

For another test, the target named is T3, recombinant human IL-4Rα (extracellular domain, tagged) (human, UniProt P24394 26-232).
T3 construct: it is written second here only for want of that; also called hIL-4Rα; not shown: His-tag or other conventionally used tag
The test can be described thus: SPR, Biacore T200; antibody (human IgG4) on the sensor chip, human IL-4Rα at 0.625-12.5 nM. The protocol: The binding affinity of the anti-IL-4Rα antibodies (reformatted as human IgG4) to human IL-4Rα was characterized using Biacore T200 (GE). The full-length anti-IL-4Rα antibodies were stabilized on sensor chip CMS. The affinities for human IL-4Rα at various concentrations were measured. […] Using the SPR technology, the association and dissociation rates were measured, and binding affinity was determined.
(In general: In SPR one partner is held on a chip, and binding of the other changes the refractive index at the surface.)
For orientation: Kd means the free concentration of one partner at which half of the binding sites on the other are occupied at equilibrium, for simple one-to-one binding. As usually defined, the koff is the rate constant with which the complex falls apart. The kon is a measure of how fast the partners come together. On to B4, for which the Kd came to 17.6 nM, the koff stood at 0.0127 s⁻¹ and the kon was determined as 719000 M⁻¹ s⁻¹.

B10: the Kd was found to be 3.62 nM, the dissociation rate constant (koff) came to 0.000416 s⁻¹ and the kon was 115000 M⁻¹ s⁻¹.

As to B11, the Kd was found to be 5.6 nM, the koff is 0.00078 s⁻¹ and the kon was found to be 139000 M⁻¹ s⁻¹.

Consider B1, for which the Kd is 1.86 nM, the koff stood at 0.000173 s⁻¹ and the kon stood at 92700 M⁻¹ s⁻¹.

Turning to B12, the Kd is 2.47 nM, the koff stood at 0.000379 s⁻¹ and the kon worked out at 154000 M⁻¹ s⁻¹.

Take B13: the Kd worked out at 2.38 nM, the koff was 0.000201 s⁻¹ and the kon was 84500 M⁻¹ s⁻¹.

As for B14, the Kd was 2.56 nM, the koff is 0.000351 s⁻¹ and the kon amounted to 137000 M⁻¹ s⁻¹.

For B15, the Kd was determined as 3.67 nM, the koff stood at 0.000557 s⁻¹ and the kon came out at 152000 M⁻¹ s⁻¹.

B16: the Kd was found to be 3.74 nM, the koff is 0.000447 s⁻¹ and the association rate constant (kon) came to 119000 M⁻¹ s⁻¹.

In the case of B2, the dissociation constant (Kd) is 2.12 nM, the koff stood at 0.00017 s⁻¹ and the kon was 80400 M⁻¹ s⁻¹.

For a further test, the target named is T2, human IL-4Rα on cells. The test is described as follows: cell-based or functional assay. The source holds these as a separate data set.
Take B3: the “IC50(nM), inhibition of TARC release in human PBMCs induced by hIL-4 (32 ng/mL)” value is 0.63 nM.

The next test concerns the target T2, human IL-4Rα on cells. The test can be described thus: cell-based or functional assay. The source holds these as a separate data set.
On to B3, for which the “IC50(nM), inhibition of IL-4 (2 ng/mL) dependent TF-1 cell proliferation” value is 0.253 nM.

Another test deals with T2, human IL-4Rα on cells. The test can be described thus: cell-based or functional assay. This is another data set of the same source.
Take B3: the “IC50(nM), inhibition of IL-13 (10 ng/mL) dependent TF-1 cell proliferation” value was 0.301 nM.

These data come from patent US20230374144A1 (STAIDSON BEIJING BIOPHARMACEUTICAL, published 2023).
